{"source": "patent US20230303983A1", "key": {"PHP.eB capsid": {"target": "PHP.eB capsid", "experiment": "AAVX affinity HPLC at room temperature (24 C), qPCR of flow-through"}, "AAV9 capsid [1]": {"target": "AAV9 capsid", "experiment": "AAVX affinity HPLC at room temperature (24 C), qPCR of flow-through"}, "AAV1 capsid": {"target": "AAV1 capsid", "experiment": "AAVX affinity HPLC, five consecutive small-scale preps on the same resin, qPCR of fractions"}, "rh32.33 capsid": {"target": "rh32.33 capsid", "experiment": "static binding assay on AAVX resin, qPCR of vector genomes"}, "[2]": {"target": "AAV2 capsid (AAV particles of serotype AAV2) (UniProt P03135)", "sequence (P03135 whole entry)": "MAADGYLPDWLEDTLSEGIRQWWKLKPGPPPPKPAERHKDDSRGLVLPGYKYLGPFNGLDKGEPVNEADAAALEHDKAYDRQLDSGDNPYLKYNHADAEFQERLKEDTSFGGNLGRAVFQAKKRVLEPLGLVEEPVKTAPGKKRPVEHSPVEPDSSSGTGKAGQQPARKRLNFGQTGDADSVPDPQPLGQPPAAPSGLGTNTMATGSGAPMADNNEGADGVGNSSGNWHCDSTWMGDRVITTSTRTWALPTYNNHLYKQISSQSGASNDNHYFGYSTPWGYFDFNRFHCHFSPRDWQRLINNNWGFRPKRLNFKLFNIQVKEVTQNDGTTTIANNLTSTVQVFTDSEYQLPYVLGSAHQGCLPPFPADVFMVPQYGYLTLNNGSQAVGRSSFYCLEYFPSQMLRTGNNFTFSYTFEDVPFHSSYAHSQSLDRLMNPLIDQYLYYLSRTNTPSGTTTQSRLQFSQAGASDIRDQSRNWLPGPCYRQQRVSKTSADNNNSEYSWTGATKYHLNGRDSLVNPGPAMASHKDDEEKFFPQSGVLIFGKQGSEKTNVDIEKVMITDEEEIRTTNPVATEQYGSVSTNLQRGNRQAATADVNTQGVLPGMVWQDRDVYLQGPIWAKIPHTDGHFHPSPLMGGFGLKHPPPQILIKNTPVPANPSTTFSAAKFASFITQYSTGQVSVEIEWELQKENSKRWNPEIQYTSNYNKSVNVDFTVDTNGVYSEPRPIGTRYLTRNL", "experiment": "static binding assay on AAVX resin, qPCR of vector genomes"}, "AAV8 capsid": {"target": "AAV8 capsid", "experiment": "static binding assay on AAVX resin, qPCR of vector genomes"}, "Anc80 capsid": {"target": "Anc80 capsid", "experiment": "static binding assay on AAVX resin, qPCR of vector genomes"}, "AAV4 capsid": {"target": "AAV4 capsid", "experiment": "static binding assay on AAVX resin, qPCR of vector genomes"}, "AAV7m8 capsid": {"target": "AAV7m8 capsid", "experiment": "static binding assay on AAVX resin, qPCR of vector genomes"}, "AAV7 capsid": {"target": "AAV7 capsid", "experiment": "static binding assay on AAVX resin, qPCR of vector genomes"}, "rh10 capsid": {"target": "rh10 capsid", "experiment": "static binding assay on AAVX resin, qPCR of vector genomes"}, "AAV2_HSPG capsid": {"target": "AAV2_HSPG capsid", "experiment": "static binding assay on AAVX resin, qPCR of vector genomes"}, "PHP.B capsid": {"target": "PHP.B capsid", "experiment": "static binding assay on AAVX resin, qPCR of vector genomes"}, "AAV5 capsid": {"target": "AAV5 capsid", "experiment": "static binding assay on AAVX resin, qPCR of vector genomes"}, "AAV9 capsid [3]": {"target": "AAV9 capsid", "experiment": "static binding assay on AAVX resin, qPCR of vector genomes"}, "AAV6.2 capsid": {"target": "AAV6.2 capsid", "experiment": "static binding assay on AAVX resin, qPCR of vector genomes"}}, "data": [{"substance": "POROS CaptureSelect AAVX resin ligand (camelid heavy-chain-only single-domain antibody fragment linked to poly[styrene divinylbenzene] beads) (VHH)", "values": [{"measurement": "fraction of input AAV in the flow-through", "setting": "PHP.eB capsid", "result": "< 5", "unit": "%"}, {"measurement": "fraction of input AAV in the flow-through", "setting": "AAV9 capsid [1]", "result": "< 5", "unit": "%"}, {"measurement": "percent of input virus in flow-through", "setting": "AAV1 capsid", "result": "< 2", "unit": "%"}, {"measurement": "recovery (percent vector genomes of input)", "setting": "rh32.33 capsid", "result": "> 95", "unit": "%"}, {"measurement": "recovery (percent vector genomes of input)", "setting": "[2]", "result": "> 95", "unit": "%"}, {"measurement": "recovery (percent vector genomes of input)", "setting": "AAV8 capsid", "result": "> 95", "unit": "%"}, {"measurement": "recovery (percent vector genomes of input)", "setting": "Anc80 capsid", "result": 80, "unit": "%"}, {"measurement": "recovery (percent vector genomes of input)", "setting": "AAV4 capsid", "result": "> 95", "unit": "%"}, {"measurement": "recovery (percent vector genomes of input)", "setting": "AAV7m8 capsid", "result": "> 95", "unit": "%"}, {"measurement": "recovery (percent vector genomes of input)", "setting": "AAV7 capsid", "result": "> 95", "unit": "%"}, {"measurement": "recovery (percent vector genomes of input)", "setting": "rh10 capsid", "result": "> 95", "unit": "%"}, {"measurement": "recovery (percent vector genomes of input)", "setting": "AAV2_HSPG capsid", "result": "> 95", "unit": "%"}, {"measurement": "recovery (percent vector genomes of input)", "setting": "PHP.B capsid", "result": "> 95", "unit": "%"}, {"measurement": "recovery (percent vector genomes of input)", "setting": "AAV5 capsid", "result": "> 95", "unit": "%"}, {"measurement": "recovery (percent vector genomes of input)", "setting": "AAV9 capsid [3]", "result": "> 95", "unit": "%"}, {"measurement": "recovery (percent vector genomes of input)", "setting": "AAV6.2 capsid", "result": "> 95", "unit": "%"}]}]}
